Source: paper PMC5623714, “Cofactor Tail Length Modulates Catalysis of Bacterial F420-Dependent Oxidoreductases” (Frontiers in Microbiology, 2017)

What was measured:
[1] = molecular target: T1, MSMEG_3380 (promiscuous F420H2-dependent reductase, FDOR-B) (Mycolicibacterium smegmatis, UniProt A0QXP8); experiment: intrinsic tryptophan fluorescence quenching; type: binding; conditions: read-out: F420 Kd
T1 construct: recombinant in E. coli BL21(DE3), Ni-NTA purified; dimer
From the text: intrinsic tryptophan fluorescence quenching on MSMEG_3380 (promiscuous F420H2-dependent reductase, FDOR-B)

[2] = molecular target: T2, MSMEG_2027 (F420H2-dependent quinone reductase, FDOR-A) (Mycolicibacterium smegmatis, UniProt A0QU01); experiment: intrinsic tryptophan fluorescence quenching; type: binding; conditions: read-out: F420 Kd
T2 construct: recombinant in E. coli BL21(DE3), Ni-NTA purified; monomer
T2 sequence (A0QU01 1-140): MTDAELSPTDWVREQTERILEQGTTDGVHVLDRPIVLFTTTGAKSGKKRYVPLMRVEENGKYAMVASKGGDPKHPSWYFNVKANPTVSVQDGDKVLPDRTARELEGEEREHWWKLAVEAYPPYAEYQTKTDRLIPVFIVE
From the text: intrinsic tryptophan fluorescence quenching on MSMEG_2027 (F420H2-dependent quinone reductase, FDOR-A)

[3] = molecular target: T3, Fgd (F420-dependent glucose 6-phosphate dehydrogenase MSMEG_0777) (Mycolicibacterium smegmatis, UniProt A0QQJ4); experiment: intrinsic tryptophan fluorescence quenching; type: binding
T3 construct: recombinant in E. coli BL21(DE3), Ni-NTA purified; LLHT family
T3 sequence (A0QQJ4 2-336): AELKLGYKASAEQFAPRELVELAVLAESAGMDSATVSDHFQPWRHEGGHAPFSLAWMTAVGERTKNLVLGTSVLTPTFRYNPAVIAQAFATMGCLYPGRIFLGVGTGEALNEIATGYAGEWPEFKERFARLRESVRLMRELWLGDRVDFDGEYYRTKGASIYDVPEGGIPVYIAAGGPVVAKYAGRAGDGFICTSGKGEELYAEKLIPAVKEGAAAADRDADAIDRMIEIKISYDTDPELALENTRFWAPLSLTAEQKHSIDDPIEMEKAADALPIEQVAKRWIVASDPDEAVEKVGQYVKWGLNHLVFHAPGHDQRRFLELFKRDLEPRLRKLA
From the text: intrinsic tryptophan fluorescence quenching on Fgd (F420-dependent glucose 6-phosphate dehydrogenase MSMEG_0777)

[4] = substrate: O=C1C=CCCC1; experiment: purified protein; type: biochemical, Mycolicibacterium smegmatis; conditions: 50 μM long-chain F420H2 (mycobacterial), 200 mM TrisHCl, 0.1% Triton X-100, pH 8.0
[5] = substrate: CC1=CC(=O)c2ccccc2C1=O; experiment: purified protein; type: biochemical, Mycolicibacterium smegmatis; conditions: 50 μM long-chain F420H2 (mycobacterial), 200 mM TrisHCl, 0.1% Triton X-100, pH 8.0

C[C@H](OP(=O)(O)OC[C@@H](O)[C@@H](O)[C@@H](O)Cn1c2nc(=O)[nH]c(=O)c-2cc2ccc(O)cc21)C(=O)N[C@@H](CCC(=O)N[C@@H](CCC(=O)O)C(=O)O)C(=O)O [F420-2, short-chain F420] was tested, and the Kd [1] was 570 ± 50 nM, the Kd [2] was 1430 ± 120 nM and the Kd [3] was 4180 ± 290 nM.

B1: MSMEG_3380 (promiscuous F420H2-dependent reductase, FDOR-B) (Mycolicibacterium smegmatis MC2 155) (protein)
chain: MVAVPEGYESLLERPLYGHLATVRPDGTPQVNAMWFAWDGEVLRFTHTTKRQKYRNIKANPAVAMSVIDPDNPYRYLEVRGLVEDIVPDPTGAFYLKLNDRYDGPLTEPPADKADRVIIVVRPTAFSKQ
notes: recombinant in E. coli BL21(DE3), Ni-NTA purified; dimer
Work on B1 yielded a Km [4] of 259 ± 41 µM, a kcat [4] of 0.025 ± 0.001 s⁻¹ and a kcat/Km [4] of 96 M⁻¹ s⁻¹.

B2: MSMEG_2027 (F420H2-dependent quinone reductase, FDOR-A) (Mycolicibacterium smegmatis MC2 155) (protein)
chain: T2 sequence (A0QU01 1-140)
notes: recombinant in E. coli BL21(DE3), Ni-NTA purified; monomer
For B2, the Km [5] was 25.6 ± 9.2 µM, the kcat [5] was 0.084 ± 0.007 s⁻¹ and the kcat/Km [5] was 3280 M⁻¹ s⁻¹.
